The values that follow come from doi:10.1101/2022.02.11.480038 (2022).

B1: Human GABARAP (residues 1-116) (natural protein)
chain: MKFVYKEEHPFEKRRSEGEKIRKKYPDRVPVIVEKAPKARIGDLDKKKYLVPSDLTVGQFYFLIRKRIHLRAEDALFFFVNNVIPPTSATMGQLYQEHHEEDFFLYIAYSDESVYG

Where no end group is shown, it is not given here. [ ]: non-standard residue; d: D form. pS = N[C@@H](COP(=O)(O)O)C(=O)O

GABARAP Y5F H9A mutant, sequence (O95166 1-116 Y5F/H9A): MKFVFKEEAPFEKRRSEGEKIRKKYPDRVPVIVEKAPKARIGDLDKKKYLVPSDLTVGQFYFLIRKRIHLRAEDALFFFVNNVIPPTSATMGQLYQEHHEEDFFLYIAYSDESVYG

One assay concerns the target TEX264 269-278 S271A,S272A. As to the kind of experiment: ITC. A general note: ITC needs no label: the signal is the heat of the interaction.
Consider B1, for which the equilibrium dissociation constant (Kd) was 72 µM.

In a further assay the target is Y5F H9A K48A. Description: ITC.
Molecule SG[pS][pS]FEELDL [phosphorylated TEX264 LIR (residues 269-278 with p-S271,p-S272)] registered a Kd of 30 µM. This lies in the double-digit micromolar range.

A further assay addresses Human LC3B (residues 1-120) (human, UniProt Q9GZQ8 1-120). Description: ITC.
Molecule SGASGSSFEELDL [TEX264 LIR peptide (residues 266-278), unphosphorylated] returned a Kd of 39 µM. This lies in the double-digit micromolar range.

As to [pS]GASGSSFEELDL [TEX264 LIR peptide (residues 266-278) with S266 phosphorylation (p-S266)], the Kd is 22 µM.

For SGEEFEELDL [phosphomimetic TEX264^(S271, 272E) peptide (2SE-LIR)], the Kd is 5.2 µM.

Take EGEEFEELDL [phosphomimetic TEX264^(S269E, S271E, S272E) peptide (3SE-LIR)]: binding was characterised by a dissociation constant (Kd) of 5 µM.

Take SGSSFEELDL [TEX264 LIR peptide (residues 269-278), unphosphorylated wild type]: binding was put at a Kd of 21 µM.

The molecule SGS[pS]FEELDL [TEX264 peptide (residues 269-278) with S272 phosphorylation (p-S272)] came in with a Kd of 0.57 µM.

In the case of [pS]G[pS][pS]FEELDL [TEX264 peptide (residues 269-278) with p-S269, p-S271, p-S272], the dissociation constant (Kd) worked out at 0.25 µM.

SG[pS][pS]FEELDL [phosphorylated TEX264 LIR (residues 269-278 with p-S271,p-S272)] yielded a Kd of 0.37 µM.

On to SGDDFEELDL [phosphomimetic TEX264^(S271D, S272D) peptide (2SD-LIR)], for which the affinity, expressed as Kd, was 7.6 µM. Against the preceding molecule, the Kd is about 21-fold higher.

The molecule DGDDFEELDL [phosphomimetic TEX264^(S269D, S271D, S272D) peptide (3SD-LIR)] came in with a Kd of 6.8 µM.

The target in the next assay is B1. Description: ITC.
In turn, SGASGSSFEELDL [TEX264 LIR peptide (residues 266-278), unphosphorylated] had a Kd of 61000 nM.

The molecule [pS]GASGSSFEELDL [TEX264 LIR peptide (residues 266-278) with S266 phosphorylation (p-S266)] came in with a Kd of 9300 nM.

As for SGEEFEELDL [phosphomimetic TEX264^(S271, 272E) peptide (2SE-LIR)], binding was put at a Kd of 2300 nM.

Take EGEEFEELDL [phosphomimetic TEX264^(S269E, S271E, S272E) peptide (3SE-LIR)]: the Kd stood at 2200 nM.

Regarding SGSSFEELDL [TEX264 LIR peptide (residues 269-278), unphosphorylated wild type], binding was put at a Kd of 47000 nM.

SGS[pS]FEELDL [TEX264 peptide (residues 269-278) with S272 phosphorylation (p-S272)] gave a Kd of 2100 nM. This Kd lies about 22-fold lower than the previous one.

[pS]G[pS][pS]FEELDL [TEX264 peptide (residues 269-278) with p-S269, p-S271, p-S272] registered a Kd of 250 nM.

In turn, SG[pS][pS]FEELDL [phosphorylated TEX264 LIR (residues 269-278 with p-S271,p-S272)] showed a Kd of 520 nM.

In turn, SGDDFEELDL [phosphomimetic TEX264^(S271D, S272D) peptide (2SD-LIR)] showed a Kd of 2100 nM.

As for DGDDFEELDL [phosphomimetic TEX264^(S269D, S271D, S272D) peptide (3SD-LIR)], the Kd came to 2200 nM.

For another assay, the target named is GABARAP Y5F H9A mutant (human, UniProt O95166 1-116, Y5F | H9A). Description: ITC.
Regarding SG[pS][pS]FEELDL [phosphorylated TEX264 LIR (residues 269-278 with p-S271,p-S272)], the Kd worked out at 2200 nM.

The Kd is the free concentration of one partner at which half of the binding sites on the other are occupied at equilibrium, for simple one-to-one binding.
